From US20140322216A1 come the findings set out here.

The experiment concerns the target human glypican-3 naturally expressed on the cell surface (HepG2 and other GPC3+ cell lines) (human) (UniProt P51654). Kind of experiment: flow cytometry on HepG2, 1G12 with anti-mouse dye, grey = isotype control; on Hs578T the histogram lies on the control's. (In general: In flow cytometry, cells or beads pass a laser one at a time.)

Sequence of human glypican-3 naturally expressed on the cell surface (HepG2 and other GPC3+ cell lines) (human) (P51654 25-554 limits assumed): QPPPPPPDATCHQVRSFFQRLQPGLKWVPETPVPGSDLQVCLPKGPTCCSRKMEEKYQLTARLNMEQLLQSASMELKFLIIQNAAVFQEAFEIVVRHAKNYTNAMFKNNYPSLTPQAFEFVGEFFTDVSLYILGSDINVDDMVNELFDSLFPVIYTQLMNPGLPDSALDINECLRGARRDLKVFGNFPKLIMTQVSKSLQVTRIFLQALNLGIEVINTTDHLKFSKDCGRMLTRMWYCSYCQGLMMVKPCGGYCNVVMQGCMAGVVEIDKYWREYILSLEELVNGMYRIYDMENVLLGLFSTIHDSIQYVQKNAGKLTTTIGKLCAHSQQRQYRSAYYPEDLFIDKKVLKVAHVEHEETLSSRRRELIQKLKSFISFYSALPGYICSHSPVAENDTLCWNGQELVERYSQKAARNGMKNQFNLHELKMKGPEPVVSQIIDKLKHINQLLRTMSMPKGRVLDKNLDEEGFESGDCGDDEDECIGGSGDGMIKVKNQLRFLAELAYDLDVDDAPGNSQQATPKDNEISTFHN

“commercial monoclonal anti-human GPC3 antibody (clone 1G12)” came in with a % of cells in the positive gate of 46.1%.
